Measurements: patent US20220089743A1 (Chugai, published 2022)
Where two headings read alike, the source gives them in different places.

Experiments:
[1] = target: HLA-DQ2.5 on IHW09023 cells loaded with 33 mer gliadin peptide (human; wheat); test: cell-based or functional assay
[2] = target: HLA-DQ2.5 on IHW09023 cells loaded with omega1/2 gliadin peptide (human; wheat); test: cell-based or functional assay
[3] = target: HLA-DQ2.5 on IHW09023 cells loaded with BC hordein peptide (human; barley); test: cell-based or functional assay
[4] = target: HLA-DQ2.5 on IHW09023 cells loaded with gamma 1 gliadin peptide (human; wheat); test: cell-based or functional assay
[5] = target: HLA-DQ2.5 on IHW09023 cells loaded with gamma 2 gliadin peptide (human; wheat); test: cell-based or functional assay
[6] = target: HLA-DQ2.5 on IHW09023 cells loaded with gamma 3 gliadin peptide (human; wheat); test: cell-based or functional assay
[7] = target: HLA-DQ2.5 on IHW09023 cells loaded with gamma 4a gliadin peptide (human; wheat); test: cell-based or functional assay
[8] = target: HLA-DQ2.5 on IHW09023 cells loaded with gamma 4d gliadin peptide (human; wheat); test: cell-based or functional assay
[9] = target: T1, HLA-DQ5.1 on Ba/F3 cells (human, limits assumed); test: FACS, Ba/F3 cells; raw MFI
T1 construct: whole, on cells; also called Ba/F3-HLA-DQ5.1
T1 MHC II alpha: not shown
T1 MHC II beta: not shown

[10] = target: T2, HLA-DQ6.3 on Ba/F3 cells (human, UniProt P01920 33-230, limits assumed); test: FACS, Ba/F3 cells; raw MFI
T2 construct: whole, on cells; also called Ba/F3-HLA-DQ6.3
T2 MHC II alpha: not shown
T2 MHC II beta: not shown

[11] = target: T3, HLA-DR on Ba/F3 cells (human, UniProt P01903 26-216; P79483 30-227, limits assumed); test: FACS, Ba/F3 cells; raw MFI
T3 construct: whole, on cells; also called Ba/F3-HLA-DR
T3 MHC II alpha: not shown
T3 MHC II beta: not shown

[12] = target: T4, HLA-DP on Ba/F3 cells (human, UniProt P20036 29-222; P04440 30-225, limits assumed); test: FACS, Ba/F3 cells; raw MFI
T4 construct: whole, on cells; also called Ba/F3-HLA-DP
T4 sequence (P20036 29-222 limits assumed, chain 1 of 4, other chains not shown): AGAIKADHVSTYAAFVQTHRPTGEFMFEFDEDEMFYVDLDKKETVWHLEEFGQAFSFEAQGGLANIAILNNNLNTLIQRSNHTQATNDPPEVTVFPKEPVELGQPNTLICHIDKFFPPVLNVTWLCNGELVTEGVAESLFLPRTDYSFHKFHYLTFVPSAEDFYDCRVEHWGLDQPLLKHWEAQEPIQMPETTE
T4 sequence (P04440 30-225 limits assumed, chain 2 of 4, other chains not shown): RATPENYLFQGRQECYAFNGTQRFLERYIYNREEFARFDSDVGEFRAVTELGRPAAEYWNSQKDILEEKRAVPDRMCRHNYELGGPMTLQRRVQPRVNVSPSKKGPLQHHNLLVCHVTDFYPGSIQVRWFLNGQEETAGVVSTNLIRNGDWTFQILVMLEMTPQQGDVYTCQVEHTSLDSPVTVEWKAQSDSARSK

[13] = target: T5, HLA-DQ2.5 on Ba/F3 cells (human, UniProt P01909 24-216, limits assumed); test: FACS, Ba/F3 cells; %MFI with IC17dK 0 and DQN0139bb 100
T5 construct: whole, on cells; MHC class II without a fused peptide; also called Ba/F3-HLA-DQ2.5

[14] = target: T6, HLA-DQ2.2 on Ba/F3 cells (human, UniProt P01909 24-216, limits assumed); test: as above
T6 construct: whole, on cells; also called Ba/F3-HLA-DQ2.2
T6 MHC II alpha: not shown
T6 MHC II beta: not shown

[15] = target: T7, HLA-DQ7.5 on Ba/F3 cells (human, UniProt P01909 24-216; P01920 33-230, limits assumed); test: as above
T7 construct: whole, on cells; also called Ba/F3-HLA-DQ7.5

[16] = target: T8, HLA-DQ8 on Ba/F3 cells (human, UniProt P01909 24-216; P01920 33-230, limits assumed); test: as above
T8 construct: whole, on cells; also called Ba/F3-HLA-DQ8
T8 MHC II alpha: not shown
T8 MHC II beta: not shown

[17] = target: T9, HLA-DQ7.3 on Ba/F3 cells (human, UniProt P01909 24-216; P01920 33-230, limits assumed); test: as above
T9 construct: whole, on cells; also called Ba/F3-HLA-DQ7.3
T9 MHC II alpha: not shown
T9 MHC II beta: not shown

[18] = target: T5, HLA-DQ2.5 on Ba/F3 cells; test: as above; remark: listed apart in the source
[19] = target: T6, HLA-DQ2.2 on Ba/F3 cells; test: as above
[20] = target: T7, HLA-DQ7.5 on Ba/F3 cells; test: as above; remark: listed apart in the source
[21] = target: T8, HLA-DQ8 on Ba/F3 cells; test: as above
[22] = target: T9, HLA-DQ7.3 on Ba/F3 cells; test: as above

B1: DQN0344H1013/L0620//DQN0385H1352/L0681-F6 (bispecific antibody)
heavy 1: QVQLVESGGGVVQPGRSLRLSCAASGFTFSSAYWMVWVRQAPGQGLEWMGAVYGGSDTTYYAKWTEGRFTISRDTSKNTLYLQMNSLRAEDTAVYYCAREPLNYYYYGELNVWGQGTLVTVSSASTKGPSVFPLAPSSKSTSGGTAALGCLVKDYFPEPVTVSWNSGALTSGVHTFPAVLKSSGLYSLSSVVTVPSSSLGTQTYICNVNHKPSNTKVDKRVEPKSCDKTHTCPPCPAPELRRGPSVFLFPPKPKDTLMISRTPEVTCVVVDVSHEDPEVKFNWYVDGVEVHNAKTKPREEQYNSTYRVVSVLTVLHQDWLNGKEYKCKVSNKALPAPIEKTISKAKGQPREPQVYTLPPSREEMTKNQVSLTCLVKGFYPSDIAVEWESNGQPENNYKTTPPYLDSDGSFFLYSKLTVDKSRWQEGNVFSCSVLHEALHAHYTREELSLSP
light 1: DIQMTQSPSSLSASVGDRVTITCQATENIYSGLAWYQQKPGKAPKLLIYYVSTLAYGIPARFSGSGSGTDFTLTISSLEPEDFAVYYCQTYEDVSAVTFGQGTKVEIKRTVAAPSVFIFPPSDEQLKSGTAEVVCLLNNFYPREAKVQWKVDNALQSGNSEESVTEQDSKDSTYSLSSTLTLSKADYEKHKVYACEVTHQGLSSPVTKSFNRGEC
heavy 2: QVQLVESGGGVVQPGRSLRLSCAASGFEFSEWYFMSWVRQAPGKGLEWVASIDTGSGSIDYAEWVEGRFTISRDNSKNTLYLQMNSLRAEDTAVYYCARDIGIDYNFWGPGTLVTVSSASTKGPSVFPLAPSSKSTSGGTAALGCLVEDYFPEPVTVSWNSGALTSGVHTFPAVLESSGLYSLSSVVTVPSSSLGTKTYICNVNHKPSNTKVDKRVEPKSCDKTHTCPPCPAPELRRGPSVFLFPPKPKDTLMISRTPEVTCVVVDVSHEDPEVKFNWYVDGVEVHNAKTKPREEQYNSTYRVVSVLTVLHQDWLNGKEYKCKVSNKALPAPIEKTISKAKGQPREPQVYTLPPSRKEMTKNQVSLTCLVKGFYPSDIAVEWESNGQPENNYKTTPPYLDSDGSFFLYSKLTVDKSRWQQGNVFSCSVLHEALHAHYTRKELSLSP
light 2: DIQMTQSPSSLSASVGDRVTITCQTTQSISSYLNWYQQKPGQPPKLLIYYASTKAEGIPARFSGSGLGTDFTLTISSLEPEDFAVYYCHYGISKVSFGQGTKVEIKRTVAAPSVFIFPPSDEQLKSGTAKVVCLLNNFYPREAKVQWKVDNALQSGNSKESVTEQDSKDSTYSLSSTLTLSKADYEKHKVYACEVTHQGLSSPVTKSFNRGEC
Q: Which results are given for B1?
A: IC50, α1a gliadin TCR, 250 nM 33mer gliadin [1]: 0.26 ng/mL; IC50, α1b gliadin TCR, 250 nM 33mer gliadin [1]: 1.13 ng/mL; IC50, α2 gliadin TCR, 250 nM 33mer gliadin [1]: 0.38 ng/mL; IC50, ω1 gliadin TCR, 25 µM ω1/2 gliadin [2]: 1.88 ng/mL; IC50, ω2 gliadin TCR, 250 nM ω1/2 gliadin [2]: 0.27 ng/mL; IC50, BC hordein TCR, 250 nM BC hordein [3]: 11.6 ng/mL; IC50, γ1 gliadin TCR, 250 nM γ1 gliadin [4]: 1.71 ng/mL; IC50, γ2 gliadin TCR, 250 nM γ2 gliadin [5]: 279 ng/mL; IC50, γ3 gliadin TCR, 100 µM γ3 gliadin [6]: 3.15 ng/mL; IC50, γ4a gliadin TCR, 25 µM γ4a gliadin [7]: 1730 ng/mL; IC50, γ4d gliadin TCR, 100 µM γ4d gliadin [8]: 3.15 ng/mL; binding result [9]: no binding (tested: 0.05 ug/mL); binding result [10]: no binding (tested: 0.05 ug/mL); binding result [11]: no binding (tested: 0.05 ug/mL); binding result [12]: no binding (tested: 0.05 ug/mL); binding result [13]: no binding (tested: 0.05 ug/mL); binding result [14]: no binding (tested: 0.05 ug/mL); binding result [15]: no binding (tested: 0.05 ug/mL); binding result [16]: no binding (tested: 0.05 ug/mL); binding result [17]: no binding (tested: 0.05 ug/mL)

B2: DQN0344H1013/L0620//DQN0385H1521/L0605-F6 (bispecific antibody)
heavy 1: QVQLVESGGGVVQPGRSLRLSCAASGFTFSSAYWMVWVRQAPGQGLEWMGAVYGGSDTTYYAKWTEGRFTISRDTSKNTLYLQMNSLRAEDTAVYYCAREPLNYYYYGELNVWGQGTLVTVSSASTKGPSVFPLAPSSKSTSGGTAALGCLVKDYFPEPVTVSWNSGALTSGVHTFPAVLKSSGLYSLSSVVTVPSSSLGTQTYICNVNHKPSNTKVDKRVEPKSCDKTHTCPPCPAPELRRGPSVFLFPPKPKDTLMISRTPEVTCVVVDVSHEDPEVKFNWYVDGVEVHNAKTKPREEQYNSTYRVVSVLTVLHQDWLNGKEYKCKVSNKALPAPIEKTISKAKGQPREPQVYTLPPSREEMTKNQVSLTCLVKGFYPSDIAVEWESNGQPENNYKTTPPYLDSDGSFFLYSKLTVDKSRWQEGNVFSCSVLHEALHAHYTREELSLSP
light 1: DIQMTQSPSSLSASVGDRVTITCQATENIYSGLAWYQQKPGKAPKLLIYYVSTLAYGIPARFSGSGSGTDFTLTISSLEPEDFAVYYCQTYEDVSAVTFGQGTKVEIKRTVAAPSVFIFPPSDEQLKSGTAEVVCLLNNFYPREAKVQWKVDNALQSGNSEESVTEQDSKDSTYSLSSTLTLSKADYEKHKVYACEVTHQGLSSPVTKSFNRGEC
heavy 2: QVQLVESGGGVVQPGRSLRLSCAASGFTFESWYFMSWVRQAPGKGLEWVASIDTGSGSIDYAEWVEGRFTISRDNSKNTLYLQMNSLRAEDTAVYYCARDIGIDYNFWGPGTLVTVSSASTKGPSVFPLAPSSKSTSGGTAALGCLVEDYFPEPVTVSWNSGALTSGVHTFPAVLESSGLYSLSSVVTVPSSSLGTKTYICNVNHKPSNTKVDKRVEPKSCDKTHTCPPCPAPELRRGPSVFLFPPKPKDTLMISRTPEVTCVVVDVSHEDPEVKFNWYVDGVEVHNAKTKPREEQYNSTYRVVSVLTVLHQDWLNGKEYKCKVSNKALPAPIEKTISKAKGQPREPQVYTLPPSRKEMTKNQVSLTCLVKGFYPSDIAVEWESNGQPENNYKTTPPYLDSDGSFFLYSKLTVDKSRWQQGNVFSCSVLHEALHAHYTRKELSLSP
light 2: DIQMTQSPSSLSASVGDRVTITCQTTQSISSYLNWYQQKPGQPPKLLIYYASTKAEGIPARFSGSGSGTDFTLTISSLEPEDFAVYYCHYGISKVSFGQGTKVEIKRTVAAPSVFIFPPSDEQLKSGTAKVVCLLNNFYPREAKVQWKVDNALQSGNSKESVTEQDSKDSTYSLSSTLTLSKADYEKHKVYACEVTHQGLSSPVTKSFNRGEC
Q: For B2, which “IC50, α1a gliadin TCR, 250 nM 33mer gliadin” value [1] is on record?
A: 0.28 ng/mL

Q: What about the “IC50, α1b gliadin TCR, 250 nM 33mer gliadin” value [1] of the same binder?
A: 1.76 ng/mL

Q: What about the “IC50, α2 gliadin TCR, 250 nM 33mer gliadin” value [1] of the same binder?
A: 0.33 ng/mL

Q: What about the “IC50, ω1 gliadin TCR, 25 µM ω1/2 gliadin” value [2] of the same binder?
A: 1.91 ng/mL

Q: What about the “IC50, BC hordein TCR, 250 nM BC hordein” value [3] of the same binder?
A: 8.98 ng/mL

Q: And the “IC50, γ1 gliadin TCR, 250 nM γ1 gliadin” value [4]?
A: 0.68 ng/mL

Q: What about the “IC50, γ2 gliadin TCR, 250 nM γ2 gliadin” value [5] of the same binder?
A: 853 ng/mL

Q: What about the “IC50, γ3 gliadin TCR, 100 µM γ3 gliadin” value [6] of the same binder?
A: 1.4 ng/mL

Q: What about the “IC50, γ4a gliadin TCR, 25 µM γ4a gliadin” value [7] of the same binder?
A: 1350 ng/mL

Q: What about the “IC50, γ4d gliadin TCR, 100 µM γ4d gliadin” value [8] of the same binder?
A: 13 ng/mL

Q: Does B2 bind [9]?
A: no binding (tested: 0.05 ug/mL)

Q: Does B2 bind [10]?
A: no binding (tested: 0.05 ug/mL)

Q: Does B2 bind [11]?
A: no binding (tested: 0.05 ug/mL)

Q: Does B2 bind [12]?
A: no binding (tested: 0.05 ug/mL)

Q: Does B2 bind [18]?
A: no binding (tested: 0.05 ug/mL)

Q: Does B2 bind [19]?
A: no binding (tested: 0.05 ug/mL)

Q: Does B2 bind [20]?
A: no binding (tested: 0.05 ug/mL)

Q: Does B2 bind [21]?
A: no binding (tested: 0.05 ug/mL)

Q: Does B2 bind [22]?
A: no binding (tested: 0.05 ug/mL)
